Test results published in US10500249B2, “Compositions and methods for preventing or treating diseases, conditions, or processes characterized by aberrant fibroblast proliferation and extracellular matrix deposition” (MOERAE MATRIX, INC., priority 2014, dated 2019).

Tests used:
Assay in all cases: Kinase Profiling Assay
Assay type in all cases: biochemical
Details in all cases: 100 μM
mTOR/FKBP12 (h) = target: T1, mTOR/FKBP12 (h) (Homo sapiens, UniProt P42345)
T1 construct: purchased Millipore
In short: (§1)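 In this 266-kinase specificity panel, every measurement was duplicated. Transfer of labeled phosphate from ATP to a cationic substrate was quantified after the substrate adhered to an anionic filter membrane and was scintillation-counted, then related to a full-activity control.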

CLK3 (h) = target: T2, CLK3 (h) (Homo sapiens, UniProt P49761)
T2 construct: purchased Millipore
In short: as §1

TrkA (h) = TrkA (h) (Homo sapiens, UniProt P04629)
In short: as §1

TBK1 (h) = target: T3, TBK1 (h) (Homo sapiens, UniProt Q9UHD2)
T3 sequence (Q9UHD2 1-729): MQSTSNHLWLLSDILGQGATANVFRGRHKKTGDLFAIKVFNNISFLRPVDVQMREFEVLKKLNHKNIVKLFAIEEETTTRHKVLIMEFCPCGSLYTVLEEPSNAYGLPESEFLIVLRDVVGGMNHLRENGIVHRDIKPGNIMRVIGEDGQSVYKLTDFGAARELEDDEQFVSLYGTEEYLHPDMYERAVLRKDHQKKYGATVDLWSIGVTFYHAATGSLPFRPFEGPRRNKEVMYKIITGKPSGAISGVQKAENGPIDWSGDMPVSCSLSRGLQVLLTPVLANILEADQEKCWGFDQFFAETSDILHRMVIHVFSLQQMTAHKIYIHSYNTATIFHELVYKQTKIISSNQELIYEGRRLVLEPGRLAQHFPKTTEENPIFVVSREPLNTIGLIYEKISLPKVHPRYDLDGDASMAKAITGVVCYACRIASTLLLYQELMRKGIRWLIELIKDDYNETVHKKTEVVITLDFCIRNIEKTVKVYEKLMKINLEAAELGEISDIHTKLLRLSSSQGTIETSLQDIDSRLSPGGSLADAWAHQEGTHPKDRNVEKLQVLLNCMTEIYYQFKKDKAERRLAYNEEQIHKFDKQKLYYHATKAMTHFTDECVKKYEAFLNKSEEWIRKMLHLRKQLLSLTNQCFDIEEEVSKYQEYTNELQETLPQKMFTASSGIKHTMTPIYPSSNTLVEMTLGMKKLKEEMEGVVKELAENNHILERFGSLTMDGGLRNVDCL
In short: as §1

Rse (h) = target: T4, Rse (h) (Homo sapiens, UniProt Q06418)
T4 sequence (Q06418 41-890): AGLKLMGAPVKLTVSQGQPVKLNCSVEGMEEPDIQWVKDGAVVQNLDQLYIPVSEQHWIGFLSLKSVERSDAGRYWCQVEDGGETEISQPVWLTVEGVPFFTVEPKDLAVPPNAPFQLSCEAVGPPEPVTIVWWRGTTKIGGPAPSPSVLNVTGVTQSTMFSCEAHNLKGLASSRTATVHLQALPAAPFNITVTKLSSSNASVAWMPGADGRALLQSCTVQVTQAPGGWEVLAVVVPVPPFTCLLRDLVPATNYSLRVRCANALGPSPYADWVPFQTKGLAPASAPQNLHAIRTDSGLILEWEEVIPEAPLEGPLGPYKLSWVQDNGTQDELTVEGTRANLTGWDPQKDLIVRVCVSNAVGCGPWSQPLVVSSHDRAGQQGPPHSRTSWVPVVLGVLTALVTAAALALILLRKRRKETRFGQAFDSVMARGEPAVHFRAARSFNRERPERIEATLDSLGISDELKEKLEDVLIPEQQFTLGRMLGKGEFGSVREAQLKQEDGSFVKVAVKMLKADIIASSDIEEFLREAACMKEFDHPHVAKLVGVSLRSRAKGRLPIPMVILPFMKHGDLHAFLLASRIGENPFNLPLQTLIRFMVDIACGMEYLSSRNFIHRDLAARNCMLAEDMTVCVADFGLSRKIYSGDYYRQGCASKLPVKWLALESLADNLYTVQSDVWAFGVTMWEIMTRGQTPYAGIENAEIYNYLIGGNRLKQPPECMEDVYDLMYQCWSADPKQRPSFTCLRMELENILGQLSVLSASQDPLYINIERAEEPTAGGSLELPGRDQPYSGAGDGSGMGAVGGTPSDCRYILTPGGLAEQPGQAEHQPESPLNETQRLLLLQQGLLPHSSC
In short: as §1

PKCζ (h) = target: T5, PKCζ (h) (Homo sapiens, UniProt Q05513)
T5 sequence (Q05513 1-592): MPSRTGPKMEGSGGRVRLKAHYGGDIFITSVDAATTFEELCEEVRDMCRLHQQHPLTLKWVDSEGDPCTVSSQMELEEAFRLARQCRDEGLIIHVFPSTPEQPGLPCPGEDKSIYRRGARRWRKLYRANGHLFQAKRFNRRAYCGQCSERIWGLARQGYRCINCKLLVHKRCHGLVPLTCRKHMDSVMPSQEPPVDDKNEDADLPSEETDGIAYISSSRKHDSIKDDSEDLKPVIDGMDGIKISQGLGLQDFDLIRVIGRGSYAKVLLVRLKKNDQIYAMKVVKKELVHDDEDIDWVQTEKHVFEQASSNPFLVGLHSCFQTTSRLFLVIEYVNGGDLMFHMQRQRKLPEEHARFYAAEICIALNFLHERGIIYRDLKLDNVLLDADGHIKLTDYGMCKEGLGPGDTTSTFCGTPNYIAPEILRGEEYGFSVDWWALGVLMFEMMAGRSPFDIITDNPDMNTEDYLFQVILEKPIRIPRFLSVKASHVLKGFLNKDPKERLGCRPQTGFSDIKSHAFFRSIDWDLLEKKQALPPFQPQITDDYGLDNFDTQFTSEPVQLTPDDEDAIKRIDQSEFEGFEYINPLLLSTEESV
In short: as §1

FAK (h) = FAK (h) (Homo sapiens, UniProt Q05397)
In short: as §1

Sequence of TrkA (h) (P04629 33-796): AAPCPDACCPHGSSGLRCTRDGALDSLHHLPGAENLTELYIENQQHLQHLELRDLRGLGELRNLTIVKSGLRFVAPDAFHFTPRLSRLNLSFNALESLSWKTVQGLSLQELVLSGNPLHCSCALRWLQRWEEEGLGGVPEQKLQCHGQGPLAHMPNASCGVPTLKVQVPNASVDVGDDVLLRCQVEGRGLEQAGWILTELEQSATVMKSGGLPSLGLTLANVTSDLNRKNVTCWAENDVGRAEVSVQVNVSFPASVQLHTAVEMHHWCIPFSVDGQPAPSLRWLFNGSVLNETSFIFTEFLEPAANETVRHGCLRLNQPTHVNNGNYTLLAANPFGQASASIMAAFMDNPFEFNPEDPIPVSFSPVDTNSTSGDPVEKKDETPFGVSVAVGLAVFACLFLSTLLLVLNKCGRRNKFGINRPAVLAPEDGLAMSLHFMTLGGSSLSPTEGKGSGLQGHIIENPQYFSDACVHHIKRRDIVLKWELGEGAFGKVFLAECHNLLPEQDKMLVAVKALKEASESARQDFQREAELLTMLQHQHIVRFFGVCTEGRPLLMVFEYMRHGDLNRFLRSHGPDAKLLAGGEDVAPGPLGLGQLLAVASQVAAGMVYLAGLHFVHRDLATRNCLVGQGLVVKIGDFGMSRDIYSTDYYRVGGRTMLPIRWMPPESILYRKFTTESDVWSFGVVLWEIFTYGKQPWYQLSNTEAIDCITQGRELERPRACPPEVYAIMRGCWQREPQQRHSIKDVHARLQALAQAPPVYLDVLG
T2 sequence (P49761 whole entry): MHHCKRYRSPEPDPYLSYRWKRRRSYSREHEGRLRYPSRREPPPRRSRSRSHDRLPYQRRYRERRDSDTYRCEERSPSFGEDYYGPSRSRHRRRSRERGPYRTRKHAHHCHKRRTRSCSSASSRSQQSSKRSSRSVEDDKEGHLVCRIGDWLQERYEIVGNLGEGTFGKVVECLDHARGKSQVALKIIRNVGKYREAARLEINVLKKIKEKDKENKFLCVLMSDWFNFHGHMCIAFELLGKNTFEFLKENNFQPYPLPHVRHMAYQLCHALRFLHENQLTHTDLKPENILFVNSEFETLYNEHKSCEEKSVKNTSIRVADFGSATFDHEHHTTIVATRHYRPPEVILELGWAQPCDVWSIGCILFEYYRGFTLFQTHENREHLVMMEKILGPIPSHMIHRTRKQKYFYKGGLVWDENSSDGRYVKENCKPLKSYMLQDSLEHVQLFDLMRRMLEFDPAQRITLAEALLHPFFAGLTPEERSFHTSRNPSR
Sequence of FAK (h) (Q05397 whole entry): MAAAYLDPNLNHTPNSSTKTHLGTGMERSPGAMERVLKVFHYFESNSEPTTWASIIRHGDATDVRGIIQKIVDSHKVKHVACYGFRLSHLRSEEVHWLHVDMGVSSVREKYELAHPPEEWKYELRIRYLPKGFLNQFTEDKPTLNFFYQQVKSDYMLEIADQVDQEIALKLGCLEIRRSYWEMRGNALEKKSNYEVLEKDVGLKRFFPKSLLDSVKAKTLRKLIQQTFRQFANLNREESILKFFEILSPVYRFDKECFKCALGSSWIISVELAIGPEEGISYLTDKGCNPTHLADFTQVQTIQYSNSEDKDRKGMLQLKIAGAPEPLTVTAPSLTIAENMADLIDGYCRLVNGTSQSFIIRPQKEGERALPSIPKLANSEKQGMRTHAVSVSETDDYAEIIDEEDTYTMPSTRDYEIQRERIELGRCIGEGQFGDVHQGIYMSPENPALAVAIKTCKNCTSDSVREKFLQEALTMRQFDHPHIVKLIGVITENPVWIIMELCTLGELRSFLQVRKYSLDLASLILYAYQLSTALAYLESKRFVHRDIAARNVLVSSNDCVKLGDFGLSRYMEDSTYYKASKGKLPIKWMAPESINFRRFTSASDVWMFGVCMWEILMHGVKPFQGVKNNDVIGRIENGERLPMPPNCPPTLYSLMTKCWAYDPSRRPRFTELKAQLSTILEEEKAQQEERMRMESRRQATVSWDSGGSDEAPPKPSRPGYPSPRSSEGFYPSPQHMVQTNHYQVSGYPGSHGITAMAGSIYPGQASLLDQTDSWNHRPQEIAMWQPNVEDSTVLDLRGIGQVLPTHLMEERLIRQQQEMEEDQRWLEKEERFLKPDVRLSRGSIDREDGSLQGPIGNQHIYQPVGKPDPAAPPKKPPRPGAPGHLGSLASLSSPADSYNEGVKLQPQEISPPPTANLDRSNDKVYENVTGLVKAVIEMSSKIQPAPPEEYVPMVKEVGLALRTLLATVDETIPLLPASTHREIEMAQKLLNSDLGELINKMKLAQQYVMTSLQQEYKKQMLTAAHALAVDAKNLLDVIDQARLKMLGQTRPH
T1 sequence (P42345 1362-2549 limits assumed): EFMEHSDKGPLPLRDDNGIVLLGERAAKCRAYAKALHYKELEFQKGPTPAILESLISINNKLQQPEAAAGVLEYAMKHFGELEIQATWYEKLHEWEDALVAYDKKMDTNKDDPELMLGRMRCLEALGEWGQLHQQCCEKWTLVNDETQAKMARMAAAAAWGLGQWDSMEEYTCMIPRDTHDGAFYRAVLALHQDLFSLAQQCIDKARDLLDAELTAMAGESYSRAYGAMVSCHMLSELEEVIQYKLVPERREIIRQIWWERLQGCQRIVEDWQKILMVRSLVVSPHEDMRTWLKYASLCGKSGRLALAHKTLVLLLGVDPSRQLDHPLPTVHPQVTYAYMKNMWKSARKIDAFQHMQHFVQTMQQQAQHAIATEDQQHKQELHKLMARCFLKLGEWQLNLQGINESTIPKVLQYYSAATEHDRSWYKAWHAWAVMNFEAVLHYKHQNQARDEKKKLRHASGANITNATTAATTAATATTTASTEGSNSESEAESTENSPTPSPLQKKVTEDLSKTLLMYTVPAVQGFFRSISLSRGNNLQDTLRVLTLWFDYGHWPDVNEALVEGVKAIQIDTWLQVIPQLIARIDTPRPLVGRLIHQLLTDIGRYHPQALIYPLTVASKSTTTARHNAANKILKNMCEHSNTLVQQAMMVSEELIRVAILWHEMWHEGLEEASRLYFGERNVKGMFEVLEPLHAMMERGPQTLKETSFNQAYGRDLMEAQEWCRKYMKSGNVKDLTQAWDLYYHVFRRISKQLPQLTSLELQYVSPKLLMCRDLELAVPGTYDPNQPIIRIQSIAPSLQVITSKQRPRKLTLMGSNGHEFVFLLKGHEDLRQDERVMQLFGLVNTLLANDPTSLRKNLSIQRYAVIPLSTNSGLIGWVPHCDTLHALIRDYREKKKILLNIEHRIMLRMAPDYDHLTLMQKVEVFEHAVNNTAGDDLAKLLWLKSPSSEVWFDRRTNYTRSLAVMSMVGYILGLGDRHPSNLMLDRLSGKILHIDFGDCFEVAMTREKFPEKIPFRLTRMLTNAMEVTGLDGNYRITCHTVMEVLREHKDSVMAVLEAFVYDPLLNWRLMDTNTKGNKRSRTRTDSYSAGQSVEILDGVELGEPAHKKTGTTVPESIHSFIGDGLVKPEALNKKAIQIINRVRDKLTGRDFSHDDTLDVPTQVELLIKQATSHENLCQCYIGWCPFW

Sequence	% activity (mTOR/FKBP12 (h)) [%]	% activity (CLK3 (h)) [%]	% activity (TrkA (h)) [%]	% activity (TBK1 (h)) [%]	% activity (Rse (h)) [%]	% activity (PKCζ (h)) [%]	% activity (FAK (h)) [%]
FAKLAARLYRKALARQLGVAA [MMI-0300]	145	61	25	37	88	81	–
HRRIKAWLKKIKALARQLGVAA (Mammalian) [MMI-0500]	140	76	24	16	63	7	94
KAFAKLAARLYRKALARQLGVAA [MMI-0400]	125	84	17	39	89	75	96
YARAAARQARAKALNRQLGVA (Mammalian) [MMI-0200]	118	76	–	98	88	98	110
